Target: MAGE D2 MAGE homology domain (MHD), amino acids 261–521 (human) (UniProt Q9UNF1)
Assay: MST

Chain of UniProt Q9UNF1 (Q9UNF1 261-521): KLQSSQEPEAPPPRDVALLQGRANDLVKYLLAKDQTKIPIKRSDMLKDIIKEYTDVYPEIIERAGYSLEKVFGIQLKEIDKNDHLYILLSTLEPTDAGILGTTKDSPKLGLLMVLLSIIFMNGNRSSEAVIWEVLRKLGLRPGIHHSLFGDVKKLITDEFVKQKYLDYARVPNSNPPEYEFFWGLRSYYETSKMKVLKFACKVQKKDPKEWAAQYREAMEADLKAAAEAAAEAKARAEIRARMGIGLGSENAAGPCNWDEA

## Gαs AHD (amino acids 68–206), purified (from UniProt P63092-2 68-206) (domain or fragment)
  Kd: 155 nM

From PMC10148139
